Here are results for one molecule from article PMC10797690, “The SIRT3-ATAD3A axis regulates MAM dynamics and mitochondrial calcium homeostasis in cardiac hypertrophy” (International Journal of Biological Sciences, 2024).

The target of this experiment is T1, NAD+-dependent deacetylase Sirtuin 3 (SIRT3), protein used for SPR.
T1 chain: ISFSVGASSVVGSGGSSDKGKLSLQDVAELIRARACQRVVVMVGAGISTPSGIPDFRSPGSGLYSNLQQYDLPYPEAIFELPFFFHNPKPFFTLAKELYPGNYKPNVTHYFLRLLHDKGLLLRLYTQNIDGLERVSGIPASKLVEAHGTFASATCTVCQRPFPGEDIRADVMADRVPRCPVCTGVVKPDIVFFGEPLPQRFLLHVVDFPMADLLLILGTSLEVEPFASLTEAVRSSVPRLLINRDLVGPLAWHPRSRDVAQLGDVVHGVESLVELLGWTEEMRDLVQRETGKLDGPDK
Nature of the experiment: SPR; multicycle kinetics; which protein was immobilised is not told. The following applies: both partners purified. On the technique in general: In SPR one partner is held on a chip, and binding of the other changes the refractive index at the surface.

B1: ATPase family AAA-domain containing protein 3A (ATAD3A), protein used for SPR (natural protein)
chain: SWLFGINKGPKGEGAGPPPPLPPAQPGAEGGGDRGLGDRPAPKDKWSNFDPTGLERAAKAARELEHSRYAKDALNLAQMQEQTLQLEQQSKLKEYEAAVEQLKSEQIRAQAEERRKTLSEETRQHQARAQYQDKLARQRYEDQLKQQQLLNEENLRKQEESVQKQEAMRRATVEREMELRHKNEMLRVEAEARARAKAERENADIIREQIRLKAAEHRQTVLESIRTAGTLFGEGFRAFVTDWDKVTATVAGLTLLAVGVYSAKNATLVAGRFIEARLGKPSLVRETSRITVLEALRHPIQVSRRLLSRPQDALEGVVLSPSLEARVRDIAIATRNTKKNRSLYRNILMYGPPGTGKTLFAKKLALHSGMDYAIMTGGDVAPMGREGVTAMHKLFDWANTSRRGLLLFVDEADAFLRKRATEKISEDLRATLNAFLYRTGQHSNKFMLVLASNQPEQFDWAINDRINEMVHFDLPGQEERERLVRMYFDKYVLKPATEGKQRLKLAQFDYGRKCSEVARLTEGMSGREIAQLAVSWQATAYASEDGVLTEAMMDTRVQDAVQQHQQKMCWLKAEGPGRGDEPSPS
B1 displayed a dissociation constant Kd of 0.0509 µM.

The Kd is the concentration at which binding is half-saturated. A low value points to a tighter complex.
